Data published in patent publication US20170183421A1 (Gilead, published 2017).
Several values for one entry are separate records, joined by “and”; a condition that tells them apart may be missing. Equal entries are not always repeated. Where two headings read alike, the source gives them in different places.

What was measured:
Human MMP9 [1] = biological target: T1, Human MMP9 (human, UniProt P14780 20-707); assay: cell-based or functional assay
Rat MMP9 [2] = biological target: T2, Rat MMP9 (rat, UniProt P50282 20-708, limits assumed); assay: cell-based or functional assay
Cynomolgus monkey MMP9 [3] = biological target: T3, Cynomolgus monkey MMP9 (cynomolgus monkey, UniProt A0A2K5UU71 20-706); assay: cell-based or functional assay
Mouse MMP9 [4] = biological target: T4, Mouse MMP9 (mouse, UniProt P41245 20-730, limits assumed); assay: cell-based or functional assay
Human MMP9 [5] = biological target: T1, Human MMP9; assay: ELISA
Rat MMP9 [6] = biological target: T2, Rat MMP9; assay: ELISA
Cynomolgus monkey MMP9 [7] = biological target: T3, Cynomolgus monkey MMP9; assay: ELISA
Mouse MMP9 [8] = biological target: T4, Mouse MMP9; assay: ELISA
Human MMP9 [9] = biological target: T1, Human MMP9; assay: ELISA; remark: listed apart in the source
Rat MMP9 [10] = biological target: T2, Rat MMP9; assay: ELISA; remark: listed apart in the source
Cynomolgus monkey MMP9 [11] = biological target: T3, Cynomolgus monkey MMP9; assay: ELISA; remark: listed apart in the source
Mouse MMP9 [12] = biological target: T4, Mouse MMP9; assay: ELISA; remark: listed apart in the source
Human MMP9 [13] = biological target: T1, Human MMP9; assay: ELISA; remark: listed apart in the source
Rat MMP9 [14] = biological target: T2, Rat MMP9; assay: ELISA; remark: listed apart in the source
Cynomolgus monkey MMP9 [15] = biological target: T3, Cynomolgus monkey MMP9; assay: ELISA; remark: listed apart in the source
Human MMP9 [16] = biological target: T1, Human MMP9; assay: SPR
Human MMP9 [17] = biological target: T1, Human MMP9; assay: direct binding and SPR assays
Human MMP9 [18] = biological target: T1, Human MMP9; assay: cell-based or functional assay; remark: listed apart in the source

T3 sequence (A0A2K5UU71 entry or part of it): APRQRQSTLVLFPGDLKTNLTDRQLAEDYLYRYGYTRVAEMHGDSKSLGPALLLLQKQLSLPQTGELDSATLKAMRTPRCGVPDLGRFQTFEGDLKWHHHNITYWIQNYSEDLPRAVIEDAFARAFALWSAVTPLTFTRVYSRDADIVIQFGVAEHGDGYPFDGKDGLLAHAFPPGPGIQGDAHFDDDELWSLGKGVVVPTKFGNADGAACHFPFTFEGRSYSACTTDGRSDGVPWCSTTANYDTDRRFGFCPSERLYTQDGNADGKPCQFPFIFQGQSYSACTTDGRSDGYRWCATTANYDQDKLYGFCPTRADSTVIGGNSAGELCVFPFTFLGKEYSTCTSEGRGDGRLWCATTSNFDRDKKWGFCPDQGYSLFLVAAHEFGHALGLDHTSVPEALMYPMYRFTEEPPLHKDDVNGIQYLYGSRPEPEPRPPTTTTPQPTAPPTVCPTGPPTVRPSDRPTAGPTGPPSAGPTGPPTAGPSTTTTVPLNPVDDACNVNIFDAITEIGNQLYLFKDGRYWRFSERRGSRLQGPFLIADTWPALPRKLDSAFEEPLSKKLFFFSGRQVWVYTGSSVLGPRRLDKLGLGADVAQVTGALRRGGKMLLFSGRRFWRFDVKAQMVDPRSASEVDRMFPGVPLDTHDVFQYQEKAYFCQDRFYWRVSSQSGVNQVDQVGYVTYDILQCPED
T4 sequence (P41245 20-730 limits assumed): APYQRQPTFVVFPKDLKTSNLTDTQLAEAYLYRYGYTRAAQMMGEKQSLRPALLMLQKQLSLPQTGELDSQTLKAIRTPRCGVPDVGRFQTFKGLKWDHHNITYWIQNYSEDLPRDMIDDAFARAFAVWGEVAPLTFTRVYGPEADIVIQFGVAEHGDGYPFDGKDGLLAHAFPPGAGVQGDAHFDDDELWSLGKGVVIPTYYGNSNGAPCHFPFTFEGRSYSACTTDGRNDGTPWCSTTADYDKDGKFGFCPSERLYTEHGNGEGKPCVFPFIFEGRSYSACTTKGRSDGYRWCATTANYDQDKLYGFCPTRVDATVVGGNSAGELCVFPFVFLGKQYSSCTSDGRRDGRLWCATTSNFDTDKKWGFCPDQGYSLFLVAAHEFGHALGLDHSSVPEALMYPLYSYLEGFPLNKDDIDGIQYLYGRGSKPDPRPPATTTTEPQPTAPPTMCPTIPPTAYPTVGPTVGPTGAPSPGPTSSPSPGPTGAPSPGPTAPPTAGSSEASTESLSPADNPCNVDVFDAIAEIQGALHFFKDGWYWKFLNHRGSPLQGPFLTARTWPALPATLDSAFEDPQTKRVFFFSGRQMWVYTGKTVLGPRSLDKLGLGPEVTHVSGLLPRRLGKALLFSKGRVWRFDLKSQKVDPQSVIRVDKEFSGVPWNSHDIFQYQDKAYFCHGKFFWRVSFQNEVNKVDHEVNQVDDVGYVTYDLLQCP
T1 sequence (P14780 20-707 Q279R/R574P): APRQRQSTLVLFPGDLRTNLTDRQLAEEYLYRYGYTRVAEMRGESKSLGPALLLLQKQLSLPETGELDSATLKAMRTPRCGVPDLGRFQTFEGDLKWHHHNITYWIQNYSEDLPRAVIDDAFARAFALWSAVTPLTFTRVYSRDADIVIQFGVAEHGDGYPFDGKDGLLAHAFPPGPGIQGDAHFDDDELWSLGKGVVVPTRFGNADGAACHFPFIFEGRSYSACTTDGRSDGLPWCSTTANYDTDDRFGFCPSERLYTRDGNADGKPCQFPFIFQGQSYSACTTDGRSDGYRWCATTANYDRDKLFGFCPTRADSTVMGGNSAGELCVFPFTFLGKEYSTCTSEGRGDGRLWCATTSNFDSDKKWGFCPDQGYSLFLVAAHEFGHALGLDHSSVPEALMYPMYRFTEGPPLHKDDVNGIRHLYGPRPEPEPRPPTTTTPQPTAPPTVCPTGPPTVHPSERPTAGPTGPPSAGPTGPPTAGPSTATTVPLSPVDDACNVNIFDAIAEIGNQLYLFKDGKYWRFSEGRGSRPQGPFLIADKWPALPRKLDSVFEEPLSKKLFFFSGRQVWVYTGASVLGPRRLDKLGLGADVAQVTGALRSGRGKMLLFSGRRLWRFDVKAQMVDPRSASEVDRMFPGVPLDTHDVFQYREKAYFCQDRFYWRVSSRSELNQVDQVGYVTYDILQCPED
T2 sequence (P50282 20-708 limits assumed): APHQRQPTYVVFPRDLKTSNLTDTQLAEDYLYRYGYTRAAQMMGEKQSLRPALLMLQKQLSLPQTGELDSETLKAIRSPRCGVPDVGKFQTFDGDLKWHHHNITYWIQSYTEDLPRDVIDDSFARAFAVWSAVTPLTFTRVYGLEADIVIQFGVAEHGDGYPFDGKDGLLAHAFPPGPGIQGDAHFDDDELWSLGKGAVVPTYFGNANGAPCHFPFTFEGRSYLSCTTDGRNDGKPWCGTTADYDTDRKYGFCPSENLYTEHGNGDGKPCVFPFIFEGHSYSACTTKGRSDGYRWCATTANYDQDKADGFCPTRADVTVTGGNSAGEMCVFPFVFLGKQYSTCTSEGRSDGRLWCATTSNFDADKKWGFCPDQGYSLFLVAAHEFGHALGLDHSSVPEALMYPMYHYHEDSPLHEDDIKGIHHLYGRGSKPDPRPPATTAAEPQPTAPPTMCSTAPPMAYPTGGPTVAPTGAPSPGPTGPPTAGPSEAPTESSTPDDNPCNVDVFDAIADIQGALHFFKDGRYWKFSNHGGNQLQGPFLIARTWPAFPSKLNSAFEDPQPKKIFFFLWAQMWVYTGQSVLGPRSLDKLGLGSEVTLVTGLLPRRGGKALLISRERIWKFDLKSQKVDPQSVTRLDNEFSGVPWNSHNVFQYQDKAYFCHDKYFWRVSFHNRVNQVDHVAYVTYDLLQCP

Activity Assay, Human MMP9 IC50 (Human MMP9 [1]) [nM]	Activity Assay, Rat MMP9 IC50 (Rat MMP9 [2]) [nM]	Activity Assay, Cynomolgus monkey MMP9 IC50 (Cynomolgus monkey MMP9 [3]) [nM]	Activity Assay, Mouse MMP9 IC50 (Mouse MMP9 [4]) [nM]	Kd (Human MMP9 [5]) [nM]	Kd (Rat MMP9 [6]) [nM]	Kd (Cynomolgus monkey MMP9 [7]) [nM]	Kd (Mouse MMP9 [8]) [nM]	Kd (Human MMP9 [9]) [nM]	Kd (Rat MMP9 [10]) [nM]	Kd (Cynomolgus monkey MMP9 [11]) [nM]	Kd (Mouse MMP9 [12]) [nM]	Kd (Human MMP9 [13]) [nM]	Kd (Rat MMP9 [14]) [nM]	Kd (Cynomolgus monkey MMP9 [15]) [nM]	Kd (Human MMP9 [16]) [nM]	Kd (Human MMP9 [17]) [nM]	IC50, MMP9 enzymatic assay under steady-state conditions (Human MMP9 [18])	Binder
0.569	2.78	0.189	> 100	0.133	0.332	0.145	> 100	0.133	0.332	0.145	> 100	< 0.4	< 0.4	< 0.4	0.0004	–	–	AB0041 (antibody, mouse IgG2b, kappa, V domains shown, Mouse IgG2b/kappa from hybridoma; derived by aligning the variable region entries to the full chains; also called mouse monoclonal anti-MMP9 antibody (AB0041)) VH: QVQLKESGPGLVAPSQSLSITCTVSGFSLLSYGVHWVRQPPGKGLEWLGVIWTGGTTNYNSALMSRLSISKDDSKSQVFLKMNSLQTDDTAIYYCARYYYGMDYWGQGTSVTVSS VL: DIVMTQSHKFMSTSVGDRVSITCKASQDVRNTVAWYQQKTGQSPKLLIYSSSYRNTGVPDRFTGSGSGTDFTFTISSVQAEDLAVYFCQQHYITPYTFGGGTKLEIKR
0.691	8.23	0.194	> 100	0.168	0.311	0.082	> 100	0.168	0.311	0.082	–	< 0.4	< 0.4	< 0.4	0.0088	~0.001	0.148 nM to 0.161 nM (2×) and 0.158 nM	AB0045 (antibody, human IgG4 S228P, kappa, V domains shown, Humanized AB0041, modified IgG4 (S241P); also called humanized variant anti-MMP9 antibody; VH3/Vk4) VH: QVQLQESGPGLVKPSETLSLTCTVSGFSLLSYGVHWVRQPPGKGLEWLGVIWTGGTTNYNSALMSRFTISKDDSKNTVYLKMNSLKTEDTAIYYCARYYYGMDYWGQGTLVTVSS VL: DIQMTQSPSSLSASVGDRVTITCKASQDVRNTVAWYQQKPGKAPKLLIYSSSYRNTGVPDRFSGSGSGTDFTLTISSLQAEDVAVYYCQQHYITPYTFGGGTKVEIKR
> 100	> 100	> 100	0.352	> 100	–	–	0.218	–	–	–	–	–	–	–	–	–	–	AB0046 (antibody, mouse IgG1, kappa, V domains shown, Mouse IgG1/kappa raised in MMP9-knockout mice against mouse MMP9; also called surrogate mouse antibody AB0046) VH: QVQLQQPGSVLVRPGASVKLSCTASGYTFTSYWMNWVKQRPGQGLEWIGEIYPISGRTNYNEKFKVKATLTVDTSSSTAYMDLNSLTSEDSAVYYCARSRANWDDYWGQGTTLTVSS VL: DIQMTQTTSSLSASLGDRVTISCSASQGISNYLNWYQQKPDGTFKLLIYYTSILHSGVPSRFSGSGSGTDYSLTISNLEPEDIATYYCQQYGWLPRTFGGGTKLEIKR
